Data: patent publication US20230233645A1, “EFFECTIVE TREATMENTS FOR VASCULAR ASSOCIATED MACULOPATHY, SEVERE MACULOPATHY, LATE-STAGE MACULOPATHY, AND ABERRANT CHORIOCAPILLARIS” (UNIVERSITY OF UTAH RESEARCH FOUNDATION, priority 2011, published 2023)
pIC50: −log10 of the molar value.

Assays:
HTRA1 = HTRA1 (Homo sapiens, UniProt Q92743); details: binds covalently to the active-site serine of HTRA1; cited from earlier work
DQ elastin = assay: In vitro elastin degradation assay using DQ elastin; type: biochemical; details: DQ elastin substrate
Description: Therefore, studies were performed to determine whether HTRA1 degrades elastin, a major component of Bruch's membrane. Recombinant HTRA1 was incubated with dye-labeled elastin at 37° C. for two hrs and the fluorescence of the released elastin peptides was monitored at 513 nm. […] In an additional positive control assay, HTRA1 elastase activity was measured by fluorescence using various concentrations of elastase enzyme starting with 0.04 ng/well of porcine pancreatic elastase and 100 ng/well of ProteaImmun HtrA1. DQ Elastin substrate was 25 ug/ml.
Recombinant HtrA1 protein expressed and purified from Sf9 cells was purchased from ProteaImmun (Cat. #30600103). The HtrA1 elastase activity was measured using a fluorescent EnzChekElastase Assay Kit from Invitrogen (Cat. #E12056) using the protocol provided, except substrate concentration was 12.5 µg/mL. HtrA1 concentration was titrated from 200-12.5 ng/well in two-fold dilutions. Activity was measured in 30-minute increments for a total of 2 hours.
The explanation for the elastin degradation in both the Bruch's membrane and the choroid vessels in the HTRA1 mice is that the protease activity of overexpressed HTRA1, which is secreted from RPE, caused the degeneration. Since HTRA1 was not known to have elastase activity, an in vitro elastin degradation assay was performed using DQ elastin, a soluble elastin labeled with quenched BODIPY FL dye, as a substrate. Purified recombinant human HTRA1 degraded elastin with a specific activity of 4.4±0.8 u/mg (n=3). […] To eliminate the possibility that the depletion of the elastic layers of the choroidal vessels and Bruch's membrane was the result of downregulation of elastin expression, we analyzed the protein level of soluble elastin in the RPE/choroid of hHTRA1^+ and WT mice by western blot. […] This is similar to what has been observed in human donors with AMD and with aberrant choriocapillaris lobules.

Chain of HTRA1 (Q92743 23-480): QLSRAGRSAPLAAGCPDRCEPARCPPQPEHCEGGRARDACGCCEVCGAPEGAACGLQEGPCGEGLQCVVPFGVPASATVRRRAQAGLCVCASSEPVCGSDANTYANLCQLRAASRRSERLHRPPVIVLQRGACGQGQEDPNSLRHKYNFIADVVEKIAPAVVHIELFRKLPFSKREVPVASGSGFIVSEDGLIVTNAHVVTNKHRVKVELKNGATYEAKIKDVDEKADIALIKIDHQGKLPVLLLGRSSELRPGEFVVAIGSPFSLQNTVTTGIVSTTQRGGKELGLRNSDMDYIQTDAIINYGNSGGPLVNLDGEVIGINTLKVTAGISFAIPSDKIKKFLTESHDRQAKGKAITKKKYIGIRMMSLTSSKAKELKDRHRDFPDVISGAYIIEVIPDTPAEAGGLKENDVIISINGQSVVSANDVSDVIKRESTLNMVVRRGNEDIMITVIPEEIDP

| Substance | pIC50 (HTRA1) | specific activity of elastin degradation (DQ elastin) | elastase activity, times less than that of porcine pancreas elastase (DQ elastin) |
| --- | --- | --- | --- |
| DPMFKLboroV | 5.59 | – | – |
| porcine pancreas elastase: reference elastase enzyme | – | 135±5.5 u/mg | – |
| recombinant human HTRA1: purified recombinant human HTRA1 serine protease | – | 4.4±0.8 u/mg | ~30 times |
